# Test results published in paper PMC11190312.
# Tests used:
# [1] = target: SARS-CoV-2 N protein secreted by mammalian Expi293 cells (N-Expi) (SARS-CoV-2) (UniProt P0DTC9); assay: SPR; single cycle kinetics, […]; global fit to 1:1 Langmuir model; […]
# [2] = target: SARS-CoV-2 N protein expressed in bacteria (N-Bact) (SARS-CoV-2) (UniProt P0DTC9); assay: as above
substance,measurement,setting,value
"Recombinant human MASP-2 S618A, full-length, stabilized in proenzyme form",Kd,[1],13.7 nM
same,koff,[1],0.000172 s⁻¹
same,kon,[1],14400 M⁻¹ s⁻¹
same,Kd,[2],12.3 nM
same,koff,[2],0.00015 s⁻¹
same,kon,[2],13900 M⁻¹ s⁻¹
